Experimental data as given in PMC11228480 (Proceedings of the National Academy of Sciences of the …, 2024).

Columns and labels:
[1] = molecular target: T1, ryanodine receptor type 1 (RyR1), endogenous, purified from mouse skeletal muscle (mouse, UniProt E9PZQ0 1-5035); experiment: pull-down
[2] = molecular target: T1, ryanodine receptor type 1 (RyR1), …; experiment: cryo-EM structure
cryo-EM structure = molecular target: the molecule itself; experiment: cryo-EM structure

T1 sequence (E9PZQ0 whole entry): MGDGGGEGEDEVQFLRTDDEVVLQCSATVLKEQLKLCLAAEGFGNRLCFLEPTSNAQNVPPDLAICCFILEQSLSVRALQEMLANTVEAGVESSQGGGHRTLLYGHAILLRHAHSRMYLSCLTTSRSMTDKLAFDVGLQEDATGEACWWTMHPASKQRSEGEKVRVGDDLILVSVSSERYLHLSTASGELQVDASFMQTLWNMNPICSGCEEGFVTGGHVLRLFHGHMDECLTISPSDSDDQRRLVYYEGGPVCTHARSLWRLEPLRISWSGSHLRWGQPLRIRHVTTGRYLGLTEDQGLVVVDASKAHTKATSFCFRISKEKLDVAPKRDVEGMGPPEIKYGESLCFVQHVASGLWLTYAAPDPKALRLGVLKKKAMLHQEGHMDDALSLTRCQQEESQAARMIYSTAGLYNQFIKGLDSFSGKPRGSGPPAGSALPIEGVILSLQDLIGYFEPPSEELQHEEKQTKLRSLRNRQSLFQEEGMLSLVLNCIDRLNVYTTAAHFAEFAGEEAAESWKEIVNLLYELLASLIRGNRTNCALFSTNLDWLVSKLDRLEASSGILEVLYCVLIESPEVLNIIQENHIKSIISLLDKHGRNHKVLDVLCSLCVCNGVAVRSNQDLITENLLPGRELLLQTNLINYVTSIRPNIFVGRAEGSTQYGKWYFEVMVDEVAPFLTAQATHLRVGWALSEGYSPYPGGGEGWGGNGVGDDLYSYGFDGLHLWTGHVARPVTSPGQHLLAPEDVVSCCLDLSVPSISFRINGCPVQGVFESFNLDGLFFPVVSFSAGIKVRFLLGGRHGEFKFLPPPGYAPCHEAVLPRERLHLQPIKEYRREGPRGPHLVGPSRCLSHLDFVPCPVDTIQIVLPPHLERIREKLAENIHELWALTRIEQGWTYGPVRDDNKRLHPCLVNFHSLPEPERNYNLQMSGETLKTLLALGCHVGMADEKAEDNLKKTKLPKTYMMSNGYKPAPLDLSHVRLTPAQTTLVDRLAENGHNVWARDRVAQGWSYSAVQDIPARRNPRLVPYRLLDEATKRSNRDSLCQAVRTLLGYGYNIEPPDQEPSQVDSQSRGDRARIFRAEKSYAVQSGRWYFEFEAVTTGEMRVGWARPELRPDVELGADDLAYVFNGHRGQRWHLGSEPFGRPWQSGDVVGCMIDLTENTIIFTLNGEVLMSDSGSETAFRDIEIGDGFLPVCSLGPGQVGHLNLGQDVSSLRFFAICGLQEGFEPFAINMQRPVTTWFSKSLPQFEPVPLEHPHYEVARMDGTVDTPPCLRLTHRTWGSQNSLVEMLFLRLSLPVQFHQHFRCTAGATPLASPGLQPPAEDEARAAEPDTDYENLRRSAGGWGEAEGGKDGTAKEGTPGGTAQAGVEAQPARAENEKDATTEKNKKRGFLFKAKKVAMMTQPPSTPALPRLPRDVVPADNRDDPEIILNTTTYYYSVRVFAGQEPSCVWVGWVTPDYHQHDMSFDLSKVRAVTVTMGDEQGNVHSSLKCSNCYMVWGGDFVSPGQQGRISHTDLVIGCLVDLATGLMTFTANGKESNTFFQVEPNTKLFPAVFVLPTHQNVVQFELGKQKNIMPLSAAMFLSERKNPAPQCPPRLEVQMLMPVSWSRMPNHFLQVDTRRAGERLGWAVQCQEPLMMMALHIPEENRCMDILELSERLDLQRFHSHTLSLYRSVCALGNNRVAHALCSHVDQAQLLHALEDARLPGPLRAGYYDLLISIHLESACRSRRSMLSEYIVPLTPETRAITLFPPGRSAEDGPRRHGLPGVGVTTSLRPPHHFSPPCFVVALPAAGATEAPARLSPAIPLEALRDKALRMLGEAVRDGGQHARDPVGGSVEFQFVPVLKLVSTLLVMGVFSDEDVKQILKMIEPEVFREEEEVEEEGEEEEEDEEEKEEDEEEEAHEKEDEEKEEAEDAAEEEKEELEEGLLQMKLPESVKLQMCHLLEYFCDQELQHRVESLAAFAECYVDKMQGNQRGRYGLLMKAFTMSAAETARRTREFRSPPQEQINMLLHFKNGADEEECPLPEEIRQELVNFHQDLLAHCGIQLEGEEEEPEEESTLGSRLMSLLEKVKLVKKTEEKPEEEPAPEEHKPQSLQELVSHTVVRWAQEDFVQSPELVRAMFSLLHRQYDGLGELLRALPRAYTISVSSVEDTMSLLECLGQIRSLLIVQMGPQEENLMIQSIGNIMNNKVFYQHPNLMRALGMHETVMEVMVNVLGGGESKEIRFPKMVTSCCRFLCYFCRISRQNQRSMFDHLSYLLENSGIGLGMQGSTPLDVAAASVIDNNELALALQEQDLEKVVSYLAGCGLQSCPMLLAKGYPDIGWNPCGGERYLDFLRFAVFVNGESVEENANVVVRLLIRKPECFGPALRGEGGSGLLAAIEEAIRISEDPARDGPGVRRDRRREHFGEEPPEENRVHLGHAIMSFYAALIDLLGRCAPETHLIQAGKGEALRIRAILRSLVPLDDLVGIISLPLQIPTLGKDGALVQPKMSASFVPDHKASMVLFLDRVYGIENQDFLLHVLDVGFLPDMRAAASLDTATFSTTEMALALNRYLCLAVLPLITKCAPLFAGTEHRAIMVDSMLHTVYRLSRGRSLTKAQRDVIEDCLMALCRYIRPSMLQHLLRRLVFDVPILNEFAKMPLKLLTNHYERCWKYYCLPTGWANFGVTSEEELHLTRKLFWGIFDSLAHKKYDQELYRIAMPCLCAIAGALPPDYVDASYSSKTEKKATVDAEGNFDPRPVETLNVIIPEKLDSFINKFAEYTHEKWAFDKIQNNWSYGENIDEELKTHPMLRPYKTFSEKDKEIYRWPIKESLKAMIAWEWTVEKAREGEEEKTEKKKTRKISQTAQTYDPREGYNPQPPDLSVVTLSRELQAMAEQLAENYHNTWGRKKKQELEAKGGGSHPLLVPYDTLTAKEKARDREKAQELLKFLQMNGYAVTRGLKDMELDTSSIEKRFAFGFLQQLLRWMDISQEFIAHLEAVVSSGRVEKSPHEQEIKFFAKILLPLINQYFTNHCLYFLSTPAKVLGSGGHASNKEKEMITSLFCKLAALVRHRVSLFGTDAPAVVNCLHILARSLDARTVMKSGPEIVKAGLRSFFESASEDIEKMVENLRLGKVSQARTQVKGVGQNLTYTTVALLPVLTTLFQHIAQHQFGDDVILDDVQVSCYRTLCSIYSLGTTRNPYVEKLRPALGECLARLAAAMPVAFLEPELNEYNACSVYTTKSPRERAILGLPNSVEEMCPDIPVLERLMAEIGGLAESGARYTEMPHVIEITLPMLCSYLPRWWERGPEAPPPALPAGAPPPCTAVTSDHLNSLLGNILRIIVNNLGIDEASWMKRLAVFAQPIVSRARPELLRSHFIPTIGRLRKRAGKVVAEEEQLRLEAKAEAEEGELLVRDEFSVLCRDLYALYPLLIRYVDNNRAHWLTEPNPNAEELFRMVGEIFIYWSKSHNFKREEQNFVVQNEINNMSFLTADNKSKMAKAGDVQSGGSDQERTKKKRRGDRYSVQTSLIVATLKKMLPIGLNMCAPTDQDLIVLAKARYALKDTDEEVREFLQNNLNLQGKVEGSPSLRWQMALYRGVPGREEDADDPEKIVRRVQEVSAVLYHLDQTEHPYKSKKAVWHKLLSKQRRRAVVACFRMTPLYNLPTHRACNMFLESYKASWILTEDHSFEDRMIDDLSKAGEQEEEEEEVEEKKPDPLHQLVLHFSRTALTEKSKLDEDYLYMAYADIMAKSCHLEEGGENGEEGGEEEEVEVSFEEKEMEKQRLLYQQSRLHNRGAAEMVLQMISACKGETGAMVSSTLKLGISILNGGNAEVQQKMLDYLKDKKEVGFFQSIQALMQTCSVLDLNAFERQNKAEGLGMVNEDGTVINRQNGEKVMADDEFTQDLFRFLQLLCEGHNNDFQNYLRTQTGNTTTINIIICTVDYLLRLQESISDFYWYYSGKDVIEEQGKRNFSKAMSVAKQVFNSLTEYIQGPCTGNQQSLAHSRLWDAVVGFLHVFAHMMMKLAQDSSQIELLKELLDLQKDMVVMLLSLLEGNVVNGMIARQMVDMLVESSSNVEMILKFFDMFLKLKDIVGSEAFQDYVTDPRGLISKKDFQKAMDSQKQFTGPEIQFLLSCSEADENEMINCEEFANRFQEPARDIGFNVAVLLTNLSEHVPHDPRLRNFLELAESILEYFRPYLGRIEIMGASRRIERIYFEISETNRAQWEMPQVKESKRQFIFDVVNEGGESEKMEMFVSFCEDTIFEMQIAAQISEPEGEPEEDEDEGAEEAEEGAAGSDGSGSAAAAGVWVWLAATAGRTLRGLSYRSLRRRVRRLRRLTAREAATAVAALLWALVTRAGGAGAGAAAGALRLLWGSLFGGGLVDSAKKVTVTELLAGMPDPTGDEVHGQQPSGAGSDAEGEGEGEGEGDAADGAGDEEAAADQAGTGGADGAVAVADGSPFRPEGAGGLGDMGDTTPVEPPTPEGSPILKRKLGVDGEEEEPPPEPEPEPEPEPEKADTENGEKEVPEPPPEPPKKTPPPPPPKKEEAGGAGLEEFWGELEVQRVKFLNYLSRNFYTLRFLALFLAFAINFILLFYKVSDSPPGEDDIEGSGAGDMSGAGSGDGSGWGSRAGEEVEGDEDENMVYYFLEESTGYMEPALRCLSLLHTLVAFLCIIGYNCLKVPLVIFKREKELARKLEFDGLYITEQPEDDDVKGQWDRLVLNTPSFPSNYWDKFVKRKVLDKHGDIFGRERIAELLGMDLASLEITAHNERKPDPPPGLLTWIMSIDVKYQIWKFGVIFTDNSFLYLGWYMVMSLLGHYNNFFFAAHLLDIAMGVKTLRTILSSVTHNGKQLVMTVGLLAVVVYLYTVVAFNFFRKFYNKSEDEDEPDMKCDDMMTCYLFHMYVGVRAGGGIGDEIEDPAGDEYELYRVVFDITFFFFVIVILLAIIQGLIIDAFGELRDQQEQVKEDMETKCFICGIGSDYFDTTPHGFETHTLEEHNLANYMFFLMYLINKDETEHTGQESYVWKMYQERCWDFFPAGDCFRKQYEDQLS

| binding result [1] | binding result [2] | Binder | stoichiometry N (cryo-EM structure) |
| --- | --- | --- | --- |
| binds | – | GST-tagged S100A1 (natural protein) MGSELESAMETLINVFHAHSGQEGDKYKLSKKELKDLLQTELSGFLDVQKDADAVDKVMKELDENGDGEVDFKEYVVLVAALTVACNNFFWETS | – |
| – | binds | recombinant mouse S100A1 (untagged) (natural protein) MGSELESAMETLINVFHAHSGQEGDKYKLSKKELKDLLQTELSGFLDVQKDADAVDKVMKELDENGDGEVDFKEYVVLVAALTVACNNFFWETS | 2 |
